According to publication PMC3597684:
Residue numbers refer to the chain shown, from its start.

T1: ParBPput-R194A (ParBPput-G291-R194A) (Pseudomonas putida, UniProt P0A152 1-290, R194A)
T1 sequence: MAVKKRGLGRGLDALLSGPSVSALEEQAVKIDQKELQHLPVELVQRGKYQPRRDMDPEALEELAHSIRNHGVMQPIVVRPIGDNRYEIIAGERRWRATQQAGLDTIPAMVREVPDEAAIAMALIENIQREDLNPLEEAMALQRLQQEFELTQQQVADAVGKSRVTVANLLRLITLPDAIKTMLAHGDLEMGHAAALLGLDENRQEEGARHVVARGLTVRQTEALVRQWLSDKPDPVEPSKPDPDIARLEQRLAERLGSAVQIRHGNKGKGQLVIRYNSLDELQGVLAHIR

T2: SopB-R219K (plasmid F (Escherichia coli), UniProt P62558 1-323, R219K)
T2 sequence: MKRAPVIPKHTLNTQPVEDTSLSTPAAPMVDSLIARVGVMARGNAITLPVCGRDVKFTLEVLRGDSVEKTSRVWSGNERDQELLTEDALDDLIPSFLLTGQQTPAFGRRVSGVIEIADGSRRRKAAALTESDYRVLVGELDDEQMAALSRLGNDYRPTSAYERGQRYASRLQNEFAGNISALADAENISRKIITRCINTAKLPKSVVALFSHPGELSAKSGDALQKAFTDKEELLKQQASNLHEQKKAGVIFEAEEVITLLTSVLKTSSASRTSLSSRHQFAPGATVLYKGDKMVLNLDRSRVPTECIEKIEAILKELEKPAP

T3: SopB-R219A (plasmid F (Escherichia coli), UniProt P62558 1-323, R219A)
T3 sequence: T2 sequence with K219A

T4: SopB (SopB-G324) (plasmid F (Escherichia coli), UniProt P62558 1-323)
T4 sequence: T2 sequence with K219R

B1: parS66 (Pput parS; assignment from listing order) (dsDNA)
DNA 1: ATTAGTCTGTTCCACGTGGAACACTCGTAT
DNA 2: ATACGAGTGTTCCACGTGGAACAGACTAAT
B2: sopC2 (dsDNA)
DNA 1: ATTAGTCTGGGACCACGGTCCCACTCGTAT
DNA 2: ATACGAGTGGGACCGTGGTCCCAGACTAAT

What was measured:
Experiment in all cases: EMSA
[1] = target: T1, ParBPput-R194A (ParBPput-G291-R194A)
[2] = target: T2, SopB-R219K
[3] = target: T3, SopB-R219A
[4] = target: T4, SopB (SopB-G324)

Binder	binding result [1]	binding signal [2]	binding signal [3]	binding result [4]
B1	no binding			
B2		~100 fold loss vs wild-type SopB	> 200 fold loss vs wild-type SopB	binds
